Measurements reported in patent publication US20240294636A1 (YALE UNIVERSITY, published 2024).

Biological target: T1, mouse Unc5B (mouse, UniProt Q8K1S3 27-945)
T1 construct: whole, on cells; Endogenous protein; also called Uncoordinated 5B
Test: immunoprecipitation from mouse brain endothelial Bend.3 cells with the named antibody, western blot of the precipitate for Unc5B and Claudin5

T1 sequence (Q8K1S3 27-945): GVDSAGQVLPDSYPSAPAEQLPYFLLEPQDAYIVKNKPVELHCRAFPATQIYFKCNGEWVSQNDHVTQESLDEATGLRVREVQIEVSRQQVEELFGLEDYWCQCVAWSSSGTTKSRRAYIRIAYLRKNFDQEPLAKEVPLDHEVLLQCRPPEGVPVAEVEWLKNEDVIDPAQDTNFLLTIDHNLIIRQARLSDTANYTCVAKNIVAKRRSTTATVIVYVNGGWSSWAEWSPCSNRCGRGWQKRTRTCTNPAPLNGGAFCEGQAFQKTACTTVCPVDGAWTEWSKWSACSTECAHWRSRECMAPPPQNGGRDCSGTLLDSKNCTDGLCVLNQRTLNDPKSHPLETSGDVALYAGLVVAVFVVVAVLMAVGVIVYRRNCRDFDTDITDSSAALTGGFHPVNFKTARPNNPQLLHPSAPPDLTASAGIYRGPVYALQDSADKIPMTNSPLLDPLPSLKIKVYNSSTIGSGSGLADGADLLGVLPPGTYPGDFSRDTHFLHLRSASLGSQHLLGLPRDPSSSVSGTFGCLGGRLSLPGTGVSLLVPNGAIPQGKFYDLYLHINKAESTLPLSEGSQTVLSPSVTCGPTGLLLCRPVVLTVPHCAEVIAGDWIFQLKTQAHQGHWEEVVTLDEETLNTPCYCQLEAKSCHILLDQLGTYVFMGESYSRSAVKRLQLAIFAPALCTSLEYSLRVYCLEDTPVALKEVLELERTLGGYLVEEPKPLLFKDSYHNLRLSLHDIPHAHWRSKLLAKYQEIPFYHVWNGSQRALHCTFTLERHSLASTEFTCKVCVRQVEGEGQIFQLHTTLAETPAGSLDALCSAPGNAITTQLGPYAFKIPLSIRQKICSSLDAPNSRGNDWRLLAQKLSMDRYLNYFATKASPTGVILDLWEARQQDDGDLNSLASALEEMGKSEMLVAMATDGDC

B1: anti-Unc5B antibody 1103 (antibody, V domains shown)
VH: EVQLVESGGGLVQPGGSLRLSCAASGFNISYYSIHWVRQAPGKGLEWVASIYSSSGYTSYADSVKGRFTISADTSKNTAYLQMNSLRAEDTAVYYCARGYGLDYWGQGTLVTVSS
VL: DIQMTQSPSSLSASVGDRVTITCRASQSVSSAVAWYQQKPGKAPKLLIYSASSLYSGVPSRFSGSRSGTDFTLTISSLQPEDFATYYCQQHYSYPITFGQGTKVEIKR
notes: also called anti-Unc5B-3
B1: binds.
